Data from patent US12636342B2, “TARS derived from Akkermansia muciniphila or fragment thereof, and use thereof” (KOREA RESEARCH INSTITUTE OF BIOSCIENCE AND BIOTECHNOLOGY, priority 2020, dated 2026).
“Also recorded” adds a separate entry of the source.

B1: ΔU1AmTARS: AmTARS mutant with deletion of unique region U1 (residues 99-113); construct SEQ ID NO 7 (protein)
chain: MSEHKERKTLEERQQMSDLERLRHSCAHVLATAICRLWPDAQLAGGPAVDNGFYYDVELDHRISTEDFERIEEEMKKVVKENQVFQKEVISRADAMKMSRFKIDLLNDIPEDEEISLYRNGDFTDLCAGPHVGRTGNCKAFKIMSVASAFYKGDKNRPMLQRIYGTCFPNRTQLDEHLERLEEARRRDHRKLGRELGLFCIDESVGQGLILWKPKGALIRRSLQDFITEELDKLGYSQVYTPNIGKLDLYRTSGHFPYYQESQYAPIPERDAMEKLSQEGASCAELFNGLATGTIEGYMLKPMNCPHHIKIYANDAHSYRDLPVRLAEFGTVYRWEQSGELGGMTRVRGFTQDDAHIFCTPDQLAGEIRQCLGIVKTIFGTLGMTDYRVRLSMRDPESDKYVGSPENWDKAEQALREAAEWLGADYSEEAGEAAFYGPKIDFIVRDAIGREWQLGTVQVDYNLPERFDLHYTGADNKPHRPVMVHRAPFGSMERFTGLLIEHFEGKFPTWLSPEQVRVLPISDKVTDVAAAHRTALAARGVRVTVDETPDKIGAKIRNARLDRVPYMLVLGQREAEDGTVSVRHRDKGDLGAMPFEQFADLVAREIAERHISPVI
modifications: misc_feature 1..1848 Akkermansia muciniphila TARS_del_Functional region 1
B2: ΔU2AmTARS: AmTARS mutant with deletion of unique region U2 (residues 290-312); construct SEQ ID NO 8 (protein)
chain: MSEHKERKTLEERQQMSDLERLRHSCAHVLATAICRLWPDAQLAGGPAVDNGFYYDVELDHRISTEDFERIEEEMKKVVKENQVFQKEVISRADAMKMAESGELGALGPRSEPSRFKIDLLNDIPEDEEISLYRNGDFTDLCAGPHVGRTGNCKAFKIMSVASAFYKGDKNRPMLQRIYGTCFPNRTQLDEHLERLEEARRRDHRKLGRELGLFCIDESVGQGLILWKPKGALIRRSLQDFITEELDKLGYSQVYTPNIGKLDLYRTSGHFPYYQESQYAPIPERDAMEYMLKPMNCPHHIKIYANDAHSYRDLPVRLAEFGTVYRWEQSGELGGMTRVRGFTQDDAHIFCTPDQLAGEIRQCLGIVKTIFGTLGMTDYRVRLSMRDPESDKYVGSPENWDKAEQALREAAEWLGADYSEEAGEAAFYGPKIDFIVRDAIGREWQLGTVQVDYNLPERFDLHYTGADNKPHRPVMVHRAPFGSMERFTGLLIEHFEGKFPTWLSPEQVRVLPISDKVTDVAAAHRTALAARGVRVTVDETPDKIGAKIRNARLDRVPYMLVLGQREAEDGTVSVRHRDKGDLGAMPFEQFADLVAREIAERHISPVI
modifications: misc_feature 1..1824 Akkermansia muciniphila TARS_del_Functional region 2

What was measured:
BMDMs [1] = test: Global gene expression profiling (RNA sequencing) of BMDMs; type: cell-based, mouse
Procedure: (A-E) Global gene expression analysis. Total mRNA from BMDMs treated with either AmTARS (0.5 μM) or Pam3 (10 ng ml-1) for 1 or 3 h was isolated and analyzed by RNA sequencing (A). Principle components analysis (PCA) of the gene expression profiles for each sample (B). Hierarchical clustering of gene expression profiles from each sample identified cluster 3 and 4 (C). Gene set enrichment analysis (GSEA) of clusters 3 and 4 with respect to terms related to inflammation (D). […] (F) Overview of the experimental procedures for zebrafish. The yolk of Tg (NFκB:EGFP) transgenic zebrafish larvae (3 dpf) was injected with PBS or AmTARS. Injected larvae were treated at 3 and 5 dpf with 0.5% DSS for 24 h, with a washing period with fresh water for 24 h in between. Sample collection and analysis of Tg (NFκB:EGFP)-based EGFP intensity were conducted at 6 dpf. (G) Representative confocal images showing NF-κB signaling in the mid-distal intestines of PBS- or AmTARS-injected larvae with or without DSS treatment. White dashed lines denote the boundaries of the intestines (based on merged DIC bright field images). (H) Bar graph comparing the fluorescence intensity of the mid-distal intestines of PBS- or AmTARS-injected larvae treated (or not) with DSS (n=32 per PBS group and n=35 per DSS group). (I) Schematic model of the role of AmTARS in maintaining immune homeostasis via TLR2-mediated anti-inflammatory signaling pathways. Data shown in (A-C) are representative and repeated twice. Data shown in (H) are representative of three independent experiments, each similar results (mean±SEM). P-values were calculated by unpaired and two-tailed Student's t-test.
We next performed global gene expression profiling of BMDMs treated with AmTARS or Pam3 for 1 or 3 h (FIG. 32A). […] Subsets of genes showing different expression patterns between AmTARS and Pam3 were classified into six clusters by hierarchical clustering analysis (FIGS. 33A and 33B). The gene expression pattern at 3 h was particularly different for clusters 3 and 4 (FIGS. 32C, 33A, and 33B). […]

BMDMs [2] = test: Immunoblotting of AmTARS/TLR2-induced signaling molecules in BMDMs; type: cell-based, mouse; settings: BMDMs stimulated for 30 min, 0.5 μM
Procedure: (A and B) Analysis of key molecules that inhibit the MAPK and PI3K/AKT signaling pathways. IL-10 produced by BMDMs pre-treated with inhibitors of ERK (PD98059, […]), p38 (SB203580, […]), MSK1/2 (SB747651A, 10 μM), CREB (666-15, 1 μM), PI3K (Wortmannin, 10 μM), and AKT1/2 (AKT1/2, 10 μM) for 1 h before treatment with either PBS or AmTARS for 24 h (n=6 per group) (A). Flow cytometry analysis of M2 macrophages in BMDMs pre-treated for 1 h with the indicated kinase inhibitors, before treatment with either PBS or AmTARS for 24 h (n=3 per group) (B). (C and D) Western blot analysis of MAPK signaling molecules in lysates of BMDMs (C) or THP1 cells (D) treated for different times with 0.5 μM AmTARS. (E) Western blot analysis of lysates of BMDMs pre-treated with α-IgG (Isotype, 1 μg ml-1) or α-TLR2 (1 μg ml-1) for 1 h before treatment with PBS, AmTARS (0.5 μM), or Pam3 (0.5 μM) for 30 min. (F and G) Western blot analysis of PI3K/AKT signaling molecules in lysates of BMDMs (F) or THP1 cells (G) treated with 0.5 μM AmTARS. (H) AmTARS activates both TLR2/1- and TLR2/6-mediated signaling. Activation of AKT, ERK, and CREB was measured by western blot analysis of lysates of THP1 cells pre-treated with α-IgG, α-TLR1, α-TLR2, or α-TLR6 (1 μg ml-1) for 1 h before treatment for 30 min with PBS or AmTARS (0.5 µM). Data shown in (A and B) are representative of three independent experiments, each with similar results (mean±SEM). P-values were calculated using an unpaired two-tailed Student's t-test. Data shown in (C-H) are representative and repeated at least three times.
Subsequently, we conducted immunoblotting assays to measure the time-dependent activation of AmTARS/TLR2-induced signaling molecules in both BMDMs and THP1 cells. AmTARS rapidly activated ERK, p38, and MSK1/2 within 15 min and, subsequently, phosphorylation of CREB at Ser133 (which is essential for IL-10 production) within 30 min in BMDMs (FIG. 31C) and THP1 cells (FIG. 31D). We then compared AmTARS-triggered TLR2 signaling with typical ligand-triggered signaling using Pam3CSK4 (the synthetic canonical TLR2/1 agonist, referred to hereafter as Pam3) in BMDMs stimulated for 30 min. […] By contrast, activation of NF-κB was greater in Pam3-treated BMDMs than in AmTARS-treated BMDMs (FIG. 31E).

[3] = tested on: mouse bone marrow-derived macrophages (BMDMs); test: ELISA of immune cytokine secretion in BMDMs under normal conditions; type: cell-based; settings: normal (non-inflammatory) conditions, 24 h
Procedure: Specifically, mouse bone marrow-derived macrophages (BMDMs) as mouse-derived immune cells were extracted from the mouse thighbone and shinbone, and then cultured in DMEM containing 10% fetal bovine serum (FBS) and antibiotics. Human macrophages (THP1) as human-derived immune cells were cultured in RPMI media containing 10% FBS and antibiotics.
The cultured cells were treated with AmTARS at 0.1 μM, 0.2 μM, and 0.5 μM for 24 h to obtain cell cultures. For cell removal, the media were centrifuged at 500×g for 10 min to obtain supernatants, which were then analyzed using an ELISA set (mouse interleukin (IL)-6, mouse IL-10, mouse tumor necrosis factor (TNF)-α, human IL-6, human IL-10, human TNF-α; BD Biosciences) to investigate the secretion of mouse- and human-derived immune cytokines. […]

[4] = Aminoacylation reaction (malachite green phosphate assay); type: biochemical; settings: L-threonine, ATP, 30 min, free Pi at 620 nm
Procedure: TARS is an […] involved in protein synthesis, and the domain and site involved in its function are well known. The constructed deletion mutants were confirmed to have deletions of parts irrelevant to the function, but the aminoacylation reaction experiment was conducted to determine whether the deletion mutants performed the intrinsic functions thereof appropriately.
Specifically, a 2× reaction solution (100 mM Tris-HCl (pH 7.5), 20 mM MgCl2, 200 mM NaCl, 200 mM KCl, 2 mM DTT, 500 μM ATP, and 5 mM L-threonine) was prepared, and 25 μL of a reaction solution, 20 μL of distilled water, and 5 μL of protein were added to make a final 50 μL volume, followed by incubation for 30 min. Thereafter, a reaction was conducted using a malachite green phosphate assay kit (Bioassay Systems) for 30 min, and the free monophosphate group (Pi) was measured at a wavelength of 620 nm.

Raw 264.7 cells = test: ELISA of immune cytokine secretion in LPS-treated Raw 264.7 cells; type: cell-based, mouse; settings: Raw 264.7, LPS, 24 h
Procedure: Next, to determine whether the regulation of immune cytokine secretion by AmTARS in an inflammatory environment was induced by the two functional sites, the mouse-derived immune cell Raw 264.7 cells were treated with LPS to induce an immune response by the method as in Example 3, and treated with AmTARS, ΔU1AmTARS, and ΔU2AmTARS for 24 h separately to obtain cell cultures. The obtained cell cultures were analyzed for Immune cytokine secretion by way of the same method as in Example 2.

[5] = tested on: mouse model of dextran sulfate sodium (DSS)-induced colitis; test: DSS-induced colitis (inflammatory bowel disease) mouse model, intraperitoneal administration; type: in vivo; settings: inflammatory bowel disease mouse model; for distribution of B cells in the colon: normal mice
Procedure: We evaluated the anti-inflammatory function of AmTARS in a mouse model of dextran sulfate sodium (DSS)-induced colitis. First, we assessed dose-dependent responses (i.e., changes in body weight and colon length) to intraperitoneal (i.p.) administration of AmTARS (0.05-0.4 mg/kg) once every other day for 10 days (FIG. 10A).
The disease activity score was calculated by adding up scores ranging from 0 to 4 points for each item of bloody stool, diarrhea, and weight loss, and the epithelial damage score was calculated by assigning 0 to 4 points according to the degree of colon tissue damage.
Next, to measure IgA, mouse feces were collected and diluted in PBS containing a protein inhibitor, and then a supernatant with impurities removed was obtained, and 100 μL was placed in each well of a 96-well plate to perform protein coating at 4° C. for 2 h. The plate was washed three times with a washing solution (50 mM Tris, 0.2% in PBS) and then incubated with 100 μL of blocking solution at room temperature for 1-2 h, followed by washing. HRP conjugated IgA antibody (1:30000) was added and then incubated at room temperature for 1 h, followed by washing. Thereafter, 100 μL of a substrate solution was added, followed by incubation for 30 min, and then 50 μL of a stop solution was added, followed by measurement at 405-450 nm by an ELISA reader. […]

Molecule | transcription factors associated with up-regulated genes (BMDMs [1]; GSEA (Enrichr)) | gene set enrichment analysis, inflammatory response-related genes (BMDMs [1]; Pam3 compared with AmTARS) | activation of NF-κB, Pam3 versus AmTARS (BMDMs [2]) | secretion/production of IL-10 [3] | aminoacylation reaction / enzymatic activity [4] | secretion of IL-6 (Raw 264.7 cells) | secretion of IL-10 (Raw 264.7 cells) | secretion of TNF-α (Raw 264.7 cells) | amount of IgG increased by an inflammatory bowel disease [5] | distribution of B cells in the colon [5]
Pam3CSK4 | up-regulation of inflammation-related transcription factors such as NF-κB, RELA, and TFAP2A | significant induction of inflammatory response-related genes | greater | – | – | – | – | – | – | –
B1 | – | – | – | abolished the IL-10 production | an aminoacylation reaction was shown; also recorded: Neither mutant protein was different from the wild-type | no effect | no effect | no effect | did not show an effect of reducing the amount of IgG | reduced the efficacy of increasing B cells in the colon
B2 | – | – | – | abolished the IL-10 production | an aminoacylation reaction was shown; also recorded: Neither mutant protein was different from the wild-type | no effect | no effect | no effect | did not show an effect of reducing the amount of IgG | reduced the efficacy of increasing B cells in the colon
